B1: ^35S-methionine-labeled in vitro translated full-length 67 kDa Fez1 (other)
chain: MGSVSSLISGHSFHSKHCRASQYKLRKSSHLKKLNRYSDGLLRFGFSQDSGHGKSSSKMGKSEDFFYIKVSQKARGSHHPDYTALSSGDLGGQAGVDFDPSTPPKLMPFSNQLEMGSEKGAVRPTAFKPVLPRSGAILHSSPESASHQLHPAPPDKPKEQELKPGLCSGALSDSGRNSMSSLPTHSTSSSYQLDPLVTPVGPTSRFGGSAHNITQGIVLQDSNMMSLKALSFSDGGSKLGHSNKADKGPSCVRSPISTDECSIQELEQKLLEREGALQKLQRSFEEKELASSLAYEERPRRCRDELEGPEPKGGNKLKQASQKSQRAQQVLHLQVLQLQQEKRQLRQELESLMKEQDLLETKLRSYEREKTSFGPALEETQWEVCQKSGEISLLKQQLKESQTEVNAKASEILGLKAQLKDTRGKLEGLELRTQDLEGALRTKGLELEVCENELQRKKNEAELLREKVNLLEQELQELRAQAALARDMGPPTFPEDVPALQRELERLRAELREERQGHDQMSSGFQHERLVWKEEKEKVIQYQKQLQQSYVAMYQRNQRLEKALQQLARGDSAGEPLEVDLEGADIPYEDIIATEI
modifications: ^35S-methionine label
notes: also called full-length (67 kDa) Fez1 protein
B2: EF1-γ(M), ^35S-methionine-labeled in vitro translated deletion mutant of EF1-γ (other)
chain: GERVTLADITVVCTLLWLYKQVLEPSFRQAFPNTNRWFLTCINQPQFRAVLGEVKLCEKMAQFDAKKFAETQPKKDTPRKEKGSREEKQKPQAERKEEKKAAAPAPEEEMDECEQALAAEPKAKDPFAHLPKSTFVLDEFKRKYSNEDT
modifications: ^35S-methionine label ; 35S-labelled methionine residues (radiolabel), written M
B3: ^35S-methionine-labeled in vitro translated EF1-α (other, UniProt P68104 1-462, looked up)
chain: MGKEKTHINIVVIGHVDSGKSTTTGHLIYKCGGIDKRTIEKFEKEAAEMGKGSFKYAWVLDKLKAERERGITIDISLWKFETSKYYVTIIDAPGHRDFIKNMITGTSQADCAVLIVAAGVGEFEAGISKNGQTREHALLAYTLGVKQLIVGVNKMDSTEPPYSQKRYEEIVKEVSTYIKKIGYNPDTVAFVPISGWNGDNMLEPSANMPWFKGWKVTRKDGNASGTTLLEALDCILPPTRPTDKPLRLPLQDVYKIGGIGTVPVGRVETGVLKPGMVVTFAPVNVTTEVKSVEMHHEALSEALPGDNVGFNVKNVSVKDVRRGNVAGDSKNDPPMEAAGFTAQVIILNHPGQISAGYAPVLDCHTAHIACKFAELKEKIDRRSGKKLEDGPKFLKSGDAAIVDMVPGKPMCVESFSDYPPLGRFAVRDMRQTVAVGVIKAVDKKAAGAGKVTKSAQKAQKAK
modifications: ^35S-methionine label
B4: EF1-γ(N), ^35S-methionine-labeled in vitro translated deletion mutant of EF1-γ (other)
chain: MAAGTLYTYPENWRAFKALIAAQYSGAQVRVLSAPPHFHFGQTNRTPEFLRKFPAGKVPAFEGDDGFCVFESNAIAYYVSNEELRGSTPEAAAQVVQWVSFADSDIVPPASTWVFPTLGIMHHNKQATENAKEEVRRILGLLDAYLKTRTFLV
modifications: ^35S-methionine label ; 35S-labelled methionine residues (radiolabel), written M
B5: GST fused with EF1-γ(N) (other, human, UniProt P26641 1-153, looked up)
chain: B4 chain
notes: not shown: glutathione S-transferase (GST)

Key:
[1] = target: T1, glutathione S-transferase (GST) fused with full-length (67 kilodalton) Fez1 protein (human, UniProt Q9Y250 1-596); test: in vitro binding of ^35S-labeled full-length Fez1 with GST-fused full-length Fez1, buffer B
T1 construct: Order GST then Fez1 follows the usual pGEX layout; also called GST-fused Fez1; GST-fused full-length 67 kDa Fez1; not shown: glutathione-S-transferase (GST) of the pGEX fusion expression vector (Pharmacia)
T1 sequence: B1 chain
Protocol: (§1) In vitro Transcription/Translation, GST-Fusion Protein and in vitro Binding Assay In vitro transcription and translation was performed using a commercially-available, rabbit reticulocyte-based system, (TNT™ T7 Quick Coupled Transcription/Translation System, Promega) by labeling with ^35S-methionine, according to supplier's instructions. GST-fusion proteins were isolated using a glutathione-agarose column (Pharmacia). Proteins were incubated in two binding buffers: buffer A (comprising 100 millimolar NaCl, 0.5% NP-40, 0.75 milligrams per milliliter bovine serum albumin (BSA), 20 millimolar Tris-HCl pH 8.0, and 1 millimolar EDTA) and buffer B (comprising 150 millimolar NaCl, 0.1% (v/v) Tween 20, 0.75 milligrams per milliliter BSA, 50 millimolar Tris-HCl pH 8.0, 5 millimolar EDTA, 10% (v/v) glycerol). After the glutathione-agarose beads had been pre-incubated in a 10% (w/v) BSA suspension, the beads were mixed with protein samples and washed 5 times, each wash comprising mixing the beads with 10 volumes of the binding buffer. After the beads had been washed, the bead-containing liquid was centrifuged to recover binding proteins. The samples were boiled for 3 minutes and then the proteins in the samples were separated by SDS-PAGE. The gel was dried and exposed to film for 4–24 hours at –80° C.
The amino acid sequence of Fez1 comprises a leucine-zipper-like region. […]

[2] = target: T1, glutathione S-transferase (GST) fused …; test: in vitro binding of ^35S-labeled deletion mutants with GST-fused Fez1
Protocol: as §1

[3] = target: T1, glutathione S-transferase (GST) fused …; test: in vitro binding of ^35S-methionine-labeled in vitro translated EFs to GST-fused Fez1, glutathione-agarose beads, SDS-PAGE
Protocol: as §1

[4] = target: B1; test: in vitro binding assay (figure legend); by paragraph 373 the labeled partner was Fez1 and EF1-γ(N) was GST-fused
Protocol: as §1, with “C. […]” for “C.”

**Q.** Does B1 bind [1]?
**A.** Result: binds

**Q.** Does B2 bind [2]?
**A.** Result: no binding

**Q.** Does B3 bind [3]?
**A.** Result: no binding

**Q.** Does B4 bind [2]?
**A.** Result: binds

**Q.** Does B5 bind [4]?
**A.** Result: binds
